Measurements reported in PMC3124363.
Each block holds one substance with its values, some of them ahead of it.

Key:
[1] = target: Cdk2 (Homo sapiens) (UniProt P24941); conditions: cited from earlier work
[2] = target: cyclin A (Homo sapiens) (UniProt P20248); conditions: cited from earlier work
[3] = target: Cdk2/cyclin A complex (full length human Cdk2 with truncated human cyclin A, residues 173–432) (human) (UniProt P24941); test: ITC

Sequence of cyclin A (Homo sapiens) (P20248 whole entry, the tested form may be a part): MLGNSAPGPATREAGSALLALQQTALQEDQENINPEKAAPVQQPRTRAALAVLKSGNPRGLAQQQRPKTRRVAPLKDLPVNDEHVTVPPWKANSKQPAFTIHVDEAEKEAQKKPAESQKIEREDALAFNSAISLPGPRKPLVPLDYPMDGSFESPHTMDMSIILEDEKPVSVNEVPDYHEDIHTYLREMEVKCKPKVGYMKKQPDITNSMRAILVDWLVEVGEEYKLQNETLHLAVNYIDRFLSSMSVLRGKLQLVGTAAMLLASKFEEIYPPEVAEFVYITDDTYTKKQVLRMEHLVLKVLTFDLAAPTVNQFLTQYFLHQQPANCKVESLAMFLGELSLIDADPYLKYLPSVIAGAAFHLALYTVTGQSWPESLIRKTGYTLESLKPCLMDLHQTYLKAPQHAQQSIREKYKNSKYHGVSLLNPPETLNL

Substance: p27 D2 (from UniProt P46527)
Kd [1]: 70 nM

Substance: p27 D1 (from UniProt P46527)
Kd [2]: 25 nM

Kd [3]: 61 nM
Substance: sub-domain D1 of p21 (domain or fragment)
